Measurements reported in article PMC7264293, “Multi-site-mediated entwining of the linear WIR-motif around WIPI β-propellers for autophagy” (Nature Communications, 2020).

Molecular target: WIPI3-Δloop (human), Q5MNZ6
Assay: ITC; WIPI3 proteins in the sample cell, GB1-tagged ATG2A fragments in the syringe; 25 °C; 50 mM Tris-HCl pH 8.0, 100 mM NaCl, 1 mM EDTA, 1 mM DTT; model of one binding site

WIPI3-Δloop (human), Q5MNZ6, sequence (Q5MNZ6 other isoform, or with tags, fused parts or gaps mutant): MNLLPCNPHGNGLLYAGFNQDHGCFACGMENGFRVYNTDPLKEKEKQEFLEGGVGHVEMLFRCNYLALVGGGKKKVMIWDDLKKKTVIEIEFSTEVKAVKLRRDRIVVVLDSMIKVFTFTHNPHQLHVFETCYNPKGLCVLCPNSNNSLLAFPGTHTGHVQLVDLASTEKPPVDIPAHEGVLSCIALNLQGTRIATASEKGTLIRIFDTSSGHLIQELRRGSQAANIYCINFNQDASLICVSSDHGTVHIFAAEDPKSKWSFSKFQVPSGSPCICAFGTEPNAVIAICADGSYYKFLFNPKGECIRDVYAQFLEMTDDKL

- Kd: 64.3 µM
Binder: GPIVVRDGYFSRPIGSTD (modifications not checked) [GB1-tagged WIR-peptide ΔN-strand]
